This is an account of results in US20260274959A1 (FUJIAN MEDICAL UNIVERSITY, published 2026).

Test [1] has as its target T1, mouse B7-H4 on cells (MC38-mH4 and E.G7-OVA-mH4 overexpressing) (mouse, UniProt Q7TSP5 25-257).
T1 construct: whole, on cells; The species of the overexpressed protein is read from the label mH4
T1 sequence (looked up): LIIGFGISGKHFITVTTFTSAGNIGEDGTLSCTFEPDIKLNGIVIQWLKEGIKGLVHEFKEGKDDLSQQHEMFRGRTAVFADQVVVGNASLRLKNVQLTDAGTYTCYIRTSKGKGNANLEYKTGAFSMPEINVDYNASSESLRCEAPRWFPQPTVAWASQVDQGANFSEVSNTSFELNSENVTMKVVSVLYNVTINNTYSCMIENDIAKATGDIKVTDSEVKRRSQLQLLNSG
In words: flow cytometry on MC38-mH4 cells. The method, then: (1) Resuspension of cells: After trypsin digestion, cells were centrifuged, the supernatant was discarded, and the cells were resuspended in PBS containing 1% (v/v) FBS and counted to adjust the concentration to 2×10⁶ cells/mL. [0126] (2) Setting controls: For a blank control, an isotype control, and samples to be tested, 100 μL of the resuspended cells in step (1) was added to each tube, so that each tube contains 2×10⁵ cells. [0127] […] A negative control tube was added with 50 μL of negative single-chain antibody, which was the monoclonal single-chain antibody that was negative in ELISA in Example 3. Tubes to be tested were respectively added with 50 μL of antibody candidates (i.e., Npsc-A8, Npsc-E7, Npsc-G10). The mixture in tubes was fully mixed, and incubated at 4° C. for 30 mins. During the incubation, the tubes were shaken every 10 mins to allow the cells to be fully reacted with the antibodies. [0128] (4) Washing of cells: An appropriate amount of PBS containing 1% (v/v) FBS was added to each tube. The tubes were centrifuged at 2000 rpm for 3 mins, and the supernatant was discarded. [0129] (5) Resuspension of cells: The cells in each tube were resuspended in 100 μL of PBS containing 1% FBS. [0130] […]

Test [2] addresses T2, Human B7-H4 protein (Sino Biological, Cat #10738-H08H-100) (human, UniProt Q7Z7D3 25-258).
T2 construct: Bought protein; also called hB7-H4 protein
T2 sequence: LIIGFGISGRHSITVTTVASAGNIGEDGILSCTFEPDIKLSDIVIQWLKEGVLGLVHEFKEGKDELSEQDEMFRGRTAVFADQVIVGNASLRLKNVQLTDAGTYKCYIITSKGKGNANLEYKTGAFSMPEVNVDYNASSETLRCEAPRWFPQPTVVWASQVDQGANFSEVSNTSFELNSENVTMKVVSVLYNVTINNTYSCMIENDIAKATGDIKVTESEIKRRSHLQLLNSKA
In words: ELISA, human B7-H4 protein coated at 2 µg/mL, scFv titrated from 20 to 0.05 µg/mL. The procedure: 4.2 Measurement of Affinity of the Npsc-A8 scFv [0142] (1) ELISA plate was placed in a clean bench, and activated under UV irradiation for more than 30 mins. Human B7-H4 protein (Sinobiological, a catalog number: 10738-HO8H-100) was coated onto wells of the ELISA plate overnight at 4° C. at 2 μg/mL. The Npsc-A8 single-chain antibody was diluted to 20 μg/mL, 10 μg/mL, 7.5 μg/mL, 5 μg/mL, 2.5 μg/mL, 1 μg/mL, 0.5 μg/mL, 0.25 μg/mL, 0.1 μg/mL, and 0.05 μg/mL, which were respectively added to wells in 100 μL per well. [0143] (2) The remaining steps were conducted according to steps (7) to (14) in Example 3. [0144] (3) The OD450 nm value was measured. A standard curve was plotted, and the EC₅₀ value was obtained.
(In general: ELISA stands for enzyme-linked immunosorbent assay.)

In test [3] the target is T3, mouse B7-H4 IgC-like domain protein (from a laboratory of Fujian Medical University) (mouse, UniProt Q7TSP5 153-241, limits assumed).
T3 construct: domain: IgC-like domain
T3 sequence (looked up): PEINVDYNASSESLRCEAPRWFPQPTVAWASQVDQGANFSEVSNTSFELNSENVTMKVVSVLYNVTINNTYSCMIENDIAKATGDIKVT
Description: ELISA, protein coated at 2 µg/mL. The procedure:
(1) A 96-well ELISA plate was placed in a clean bench, and activated under UV irradiation for more than 30 mins. The human B7-H4 protein (Sinobiological, a catalog number: 10738-HO8H-100), mouse B7-H4 protein (from a laboratory of Fujian Medical University), mouse B7-H4 IgV-like domain protein (from a laboratory of Fujian Medical University), and mouse B7-H4 IgC-like domain protein (from a laboratory of Fujian Medical University) were respectively coated onto wells of the 96-well ELISA plate at a concentration of 2 μg/mL, and incubated at 4° C. overnight. The Npsc-A8 full-length antibody protein obtained in Example 5 was diluted to 10 μg/mL with PBS buffer, and added to wells in 100 μL per well. [0165] (2) The remaining steps were conducted according to steps (6) to (13) in Example 3. 6H3 and 8H4 were used as control antibodies. 6H3 is a mouse anti-human B7-H4 IgC domain antibody, referring to patent application publication number CN 104955475 A. 8H4 is a hamster anti-human B7-H4 IgV domain antibody, referring to DOI: 10.1016/s1074-7613 (03) 00152-3. [0166] (3) OD450 nm value was measured.

Test [4] concerns the target T1, mouse B7-H4 on cells (MC38-mH4 and …). Description: flow cytometry on MC38-mH4 and E.G7-OVA-mH4 cells; the filing adds that at the same concentration it binds human tumor cells at a higher affinity than mouse tumor cells. The method, then:
A negative control tube was added with 50 μL of negative single-chain antibody, which was the monoclonal single-chain antibody that was negative in ELISA in Example 3. Tubes to be tested were respectively added with 50 μL of antibody candidates (i.e., Npsc-A8, Npsc-E7, Npsc-G10). The mixture in tubes was fully mixed, and incubated at 4° C. for 30 mins. During the incubation, the tubes were shaken every 10 mins to allow the cells to be fully reacted with the antibodies. [0128] (4) Washing of cells: An appropriate amount of PBS containing 1% (v/v) FBS was added to each tube. The tubes were centrifuged at 2000 rpm for 3 mins, and the supernatant was discarded. [0129] (5) Resuspension of cells: The cells in each tube were resuspended in 100 μL of PBS containing 1% FBS. [0130] (6) Incubation with secondary antibody: An appropriate amount of fluorescently labeled secondary antibody was added to the isotype control tube and the test tubes, mixed thoroughly, and incubated at 4° C. in the dark for 30 mins. During the incubation, the tubes were shaken every 10 mins. [0131] (7) Washing of cells: 2 mL PBS was added to each tube, the tubes were centrifuged at 2000 rpm for 3 mins, and the supernatant was discarded. This process was conducted twice. [0132] (8) On-machine testing: Cells in each tube were resuspended in 200 μL PBS. […]
For orientation: In flow cytometry, cells or beads pass a laser one at a time.

B1: Npsc-A8 single-chain antibody (scFv, V domains shown)
VH: QVQLQESGGGLMQVGGSLRLSCTASGFVFGDYGMNWVRQAPGKGLEWVSLIDTYGASTFYADSVKGRFTISRDNSKQTVFLQMDGLRADDTAMYFCAKPILMFPAFDLWGPGTMVTVSS
VL: DVVMTQSPSSLSASVGDRVTITCRASQGIRNDLAWYQKKPGKAPKRLIYAASSLQSGVPSRFSGSGYGAEFSLTISSLQPEDFATYFCLHHSQYPWTFGQGTKVDIK
notes: Soluble scFv from a phage display human natural scFv library; also called Npsc-A8 scFv; not shown: The scFv linker between the two variable domains, the domain order, and the tag detected with the anti-HA-tag antibody
Usually EC50 stands for the midpoint of the concentration-response curve. Lower therefore signals greater potency. For B1, the binding result in test [1] was “binds”. This molecule displayed an EC50 in test [2] of 2.02 µg/mL.

B2: Npsc-A8 full-length antibody (antibody, V domains shown)
VH: B1 VH
VL: DVVMTQSPSSLSASVGDRVTITCRASQGIRNDLAWYQKKPGKAPKRLIYAASSLQSGVPSRFSGSGYGAEFSLTISSLQPEDFATYFCLHHSQYPWTFGQGTKVDIKR
notes: also called Npsc-A8 antibody
Turning to B2, the binding result is given as “no binding (tested: 10 µg/mL)” in test [3] and “binds” in test [4].
